Laboratory results from article PMC8155045.

Target: mCherry-YC (37 kDa isoform)
Assay: FRET or BRET; FLIM-FRET (phasor analysis) in nuclei of live HeLa cells, eGFP donor and mCherry acceptor, all three NF-Y subunits transfected (third one untagged), 24 h after transfection, 37 degrees, 5% CO2

FRET efficiency: 16%
fraction of FRET (% pixels): 38.2 % pixels
B1: EGFP-YB (natural protein)
chain: MTMDGDSSTTDASQLGISADYIGGSHYVIQPHDDTEDSMNDHEDTNGSKESFREQDIYLPIANVARIMKNAIPQTGKIAKDAKECVQECVSEFISFITSEASERCHQEKRKTINGEDILFAMSTLGFDSYVEPLKLYLQKFREAMKGEKGIGGAVTATDGLSEELTEEAFTNQLPAGLITTDGQQQNVMVYTTSYQQISGVQQIQFS
